Where a chain is given by its changes, count along the chain named. In names and notes the source's numbering stands.

A short description of series [1]: Enzyme-catalyzed acylation of 1,4-butanediol with ethyl acetate as acyl donor (Example 2). Conditions: for Conversion at 3:1 (monoester:diester) / Conversion at 9:1 (monoester:diester) / Maximum monoester yield: 1,4-butanediol 20 mM in ethyl acetate; for Maximum monoester yield: 29° C. The format is biochemical. As to the method:
Each diol was dissolved to a concentration of 20 mM together with 5 mM of 3-hexanone in ethyl acetate, ≧99% from Fluka, which was used as acyl donor and solvent. Reactions were started by adding 4 ml reaction solution to 20 mg enzyme carrier beads loaded with either wild-type or T40A mutated CALB. Reactions were run at 29° C. on a HLC rotating thermo block. Aliquots of 50 μl were taken, filtered through wool in a Pasteur pipette and diluted with 50 μl ethyl acetate prior to analysis. The 3-hexanon used as internal standard were present in the reaction solution throughout both reaction and analysis.
5 mM 3-hexanone was used as internal standard in the reaction mixtures together with 20 mM diol. Aliquots were taken during the reaction by taking 50 μl of reaction sample. The samples were filtered though wool together with 50 μl ethyl acetate, thereby any remaining enzyme were removed and the reaction samples were diluted by a factor of 2 prior to analysis.
The reactions catalyzed by the T40A-mutant were rerun with 100 mg enzyme carrier beads for determination of maximum monoester yield. The reactions with 2-methyl-1,3-propanediol and 2-phenyl-1,3-propanediol were rerun at 100 mM concentration of diol and 50 mg enzyme carrier beads, both with CALB wild type and CALB T40A-mutant. This was done in order to determine the enantiomeric excess.
All reactions were analyzed on GC, Hewlett Packard 5890 series II. Two different 25 m×0.32 mm WCOT fused silica columns were used, depending on the different substrates and products that were analyzed. A polar GC-column with CP Chirasil-Dex CB coating was used for the reactions with 1,2-ethanediol and 1,3-propanediol. A non-polar GC-column with CP-SIL 5CB coating was used for the reactions with 1,4-butanediol, 2-methyl-1,3-propanediol and 2-phenyl-1,3-propanediol.
The response factor for each diol was determined in relationship to 3-hexanone. When all diol and mono-ester had converted to di-ester, the response factor for the di-ester could be determined in relationship to […]. The concentration of mono-ester in each reaction was determined by subtracting the concentration of di-ester from the starting concentration of diol.
A great difference in concentration between acyl donor and diol was accomplished in the reactions by using ethyl acetate as solvent and acyldonor and a diol concentration of 20 mM. Therefore the reactions was considered to irreversible, following the reaction scheme:
[formula] A, B and C corresponds to diol, monoester and diester, respectively. k1 and k2 respectively corresponds to the reaction rates of the acylation of diol and monoester.
The reaction rates are dependent on enzyme concentrations and the kcat/KM towards the substrates. By fitting the concentrations measured over time into the equations and using the enzyme concentration determined by active site titration, the following results were obtained.

The nature of series [2]: Active site titration with inhibitor and activity measurement after inhibition (Example 1). In kind it is biochemical. Conditions: for Share of immobilized enzyme inhibited (activity measurements after inhibition): 50 μM inhibitor in acetonitrile, activity with 1-butanol and vinyl butyrate in MTBE. As to the method: The amount of enzyme loaded on the carriers was confirmed by active site titration using the inhibitor methyl 4-methylumbelliferyl hexylphosphonate. Inhibitor from an ampoule stored in a freezer (−20° C.) was dissolved to a concentration of 50 μM in acetonitrile. The inhibitor was previously synthesized and used for active site titration of CALB as described in Magnusson, A. O., et al., Creating space for large secondary alcohols by rational redesign of Candida antarctica lipase B. Chembiochem, 2005. 6(6): p. 1051-1056 and Rotticci, D., et al., An active-site titration method for lipases. Biochimica Et Biophysica Acta-Molecular and Cell Biology of Lipids, 2000. 1483(1): p. 132-140.
Inhibition reactions were run in three separate vials each containing 50 mg enzyme carrier beads with immobilized CALB wild type and T40A-mutant. The wild type was run in one of the reaction vials, and the other two contained T40A-mutant. The enzymes were incubated in 1 ml of 50 μM inhibitor dissolved in acetonitrile. Each vial were sealed and covered in aluminium foil, to prevent light from damaging the fluorophore, and stored in continuous end over end. Aliquots were taken after 2, 5 and 9 days. […] Analysis was preformed by fluorescence using a Perkin Elmer LS 50 B fluorimeter. […] Fluorescence was also measured in two different control samples. Inhibitor, 50 μM in acetonitrile, was incubated without enzyme for control of background fluorescence from spontaneous hydrolysis of the methyl 4-methylumbelliferyl hexylphosphonate. In addition to this, 50 mg of each enzyme was incubated in acetonitrile without inhibitor for control of any background fluorescence from the immobilized enzyme. The total fluorescence from these samples was subtracted from the fluorescence measured in the inhibition reactions. […]
Remaining activity was measured after inhibition. […] For comparison, the reaction was repeated with the enzyme used for control of background fluorescence. […] The amounts of immobilized enzymes taken from the fluorescence controls used in the reactions were 2.8 mg of the wild type and 9.0 T40A. […]

B1: WT: non-mutated Candida antarctica lipase B (CALB), SEQ ID NO: 2, immobilized on carrier beads (protein, listed as Candida antarctica)
chain: LPSGSDPAFSQPKSVLDAGLTCQGASPSSVSKPILLVPGTGTTGPQSFDSNWIPLSAQLGYTPCWISPPPFMLNDTQVNTEYMVNAITTLYAGSGNNKLPVLTWSQGGLVAQWGLTFFPSIRSKVDRLMAFAPDYKGTVLAGPLDALAVSAPSVWQQTTGSALTTALRNAGGLTQIVPTTNLYSATDEIVQPQVSNSPLDSSYLFNGKNVQAQAVCGPLFVIDHAGSLTSQFSYVVGRSALRSTTGQARSADYGITDCNPLPANDLTPEQKVAAAALLAPAAAAIVAGPKQNCEPDLMPYARPFAVGKRTCSGIVTP
modifications: immobilized on carrier beads
With B1, in series [1], the “Conversion at 3:1 (monoester:diester)” value is recorded as less than 5%, the “Conversion at 9:1 (monoester:diester)” value is listed as less than 5% and the Maximum monoester yield is reported as 25%. Further, the Selectivity diol/monoester in series [1] (1,4-butanediol, ethyl acetate, listed as wild type) is reported as 0.63. This molecule also had a Selectivity diol/monoester in series [1] (1,4-butanediol, ethyl acetate, listed as wild type CALB) of 0.6. In addition, the “Share of immobilized enzyme inhibited (activity measurements after inhibition)” value in series [2] was 83%.

B2: T40A: CALB mutant with single mutation Thr40Ala (SEQ ID NO: 4) (protein)
chain: B1 chain with T40X
modifications: T40 Mutant
In the case of B2, in series [1], the “Conversion at 3:1 (monoester:diester)” value came out at 64%, the “Conversion at 9:1 (monoester:diester)” value worked out at 26% and the Maximum monoester yield stood at 49%. Moreover, in series [1] (1,4-butanediol, ethyl acetate), the Selectivity diol/monoester is recorded as 1.8 and the “Selectivity ratio diol/monoester T40A/WT” value turned out to be 2.9. In series [1] (1,4-butanediol, ethyl acetate, listed as T40A CALB), this molecule returned a Selectivity diol/monoester of 1.9. Moreover, in series [2], the “Share of immobilized enzyme inhibited (activity measurements after inhibition)” value is given as 21%. For the same molecule, the “Remaining activity after inhibition” value in series [2] (100 mM 1-butanol, 1 M vinyl butyrate in MTBE) was “to low to measure”.

These data come from patent publication US8715970B2, “Enzymatically catalyzed method of preparing mono-acylated polyols” (BASF SE, priority 2009, dated 2014).
